2 molecules from article PMC9849454, “Kaposi’s sarcoma-associated herpesvirus induces specialised ribosomes to efficiently translate viral lytic mRNAs” (Nature Communications, 2023) can be followed below.

For this assay, the target named is T1, FLAG-2xStrep-PNO1 (UniProt Q9NRX1 1-252).
T1 construct: also called PNO1 bait protein
Kind of assay: pull-down. The note with it: partners not purified.

T1 sequence (Q9NRX1 whole entry): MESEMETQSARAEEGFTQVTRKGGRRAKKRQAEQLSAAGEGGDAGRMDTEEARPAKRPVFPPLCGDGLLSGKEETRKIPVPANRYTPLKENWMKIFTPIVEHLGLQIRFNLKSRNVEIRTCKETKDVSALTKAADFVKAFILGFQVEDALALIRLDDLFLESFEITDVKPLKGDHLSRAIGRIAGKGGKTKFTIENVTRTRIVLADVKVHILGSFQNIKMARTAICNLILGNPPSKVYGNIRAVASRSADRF

B1: NOC4L (natural protein, human (endogenous in TREx BCBL1-Rta), UniProt Q9BVI4 1-516, looked up)
chain: MEREPGAAGVRRALGRRLEAVLASRSEANAVFDILAVLQSEDQEEIQEAVRTCSRLFGALLERGELFVGQLPSEEMVMTGSQGATRKYKVWMRHRYHSCCNRLGELLGHPSFQVKELALSALLKFVQLEGAHPLEKSKWEGNYLFPRELFKLVVGGLLSPEEDQSLLLSQFREYLDYDDTRYHTMQAAVDAVARVTGQHPEVPPAFWNNAFTLLSAVSLPRREPTVSSFYVKRAELWDTWKVAHLKEHRRVFQAMWLSFLKHKLPLSLYKKVLLIVHDAILPQLAQPTLMIDFLTRACDLGGALSLLALNGLFILIHKHNLEYPDFYRKLYGLLDPSVFHVKYRARFFHLADLFLSSSHLPAYLVAAFAKRLARLALTAPPEALLMVLPFICNLLRRHPACRVLVHRPHGPELDADPYDPGEEDPAQSRALESSLWELQALQRHYHPEVSKAASVINQALSMPEVSIAPLLELTAYEIFERDLKKKGPEPVPLEFIPAQGLLGRPGELCAQHFTLS
Take B1: the “fold increase of association during lytic replication over latency (densitometry of pulldown blots, normalised to PNO1)” value is 3.1 fold.

B2: BUD23 (natural protein, human (endogenous in TREx BCBL1-Rta), UniProt O43709 1-281, looked up)
chain: MASRGRRPEHGGPPELFYDETEARKYVRNSRMIDIQTRMAGRALELLYLPENKPCYLLDIGCGTGLSGSYLSDEGHYWVGLDISPAMLDEAVDREIEGDLLLGDMGQGIPFKPGTFDGCISISAVQWLCNANKKSENPAKRLYCFFASLFSVLVRGSRAVLQLYPENSEQLELITTQATKAGFSGGMVVDYPNSAKAKKFYLCLFSGPSTFIPEGLSENQDEVEPRESVFTNERFPLRMSRRGMVRKSRAWVLEKKERHRRQGREVRPDTQYTGRKRKPRF
Regarding B2, the “fold increase of association during lytic replication over latency (densitometry of pulldown blots, normalised to PNO1)” value was 4.3 fold.
